Data: publication PMC9957003, “Functional Analyses of Rare Germline Missense BRCA1 Variants Located within and outside Protein Domains with Known Functions” (Genes, 2023)

T1: BARD1-V5 WT (BRCA1-Associated RING Domain protein 1) (UniProt Q99728 1-777)
T1 construct: BARD1 (BRCA1-Associated RING Domain protein 1), wild type; also called pcDNA6.2-BARD1-V5; source: HEK293FT, transiently co-transfected, in lysate
T1 sequence (looked up): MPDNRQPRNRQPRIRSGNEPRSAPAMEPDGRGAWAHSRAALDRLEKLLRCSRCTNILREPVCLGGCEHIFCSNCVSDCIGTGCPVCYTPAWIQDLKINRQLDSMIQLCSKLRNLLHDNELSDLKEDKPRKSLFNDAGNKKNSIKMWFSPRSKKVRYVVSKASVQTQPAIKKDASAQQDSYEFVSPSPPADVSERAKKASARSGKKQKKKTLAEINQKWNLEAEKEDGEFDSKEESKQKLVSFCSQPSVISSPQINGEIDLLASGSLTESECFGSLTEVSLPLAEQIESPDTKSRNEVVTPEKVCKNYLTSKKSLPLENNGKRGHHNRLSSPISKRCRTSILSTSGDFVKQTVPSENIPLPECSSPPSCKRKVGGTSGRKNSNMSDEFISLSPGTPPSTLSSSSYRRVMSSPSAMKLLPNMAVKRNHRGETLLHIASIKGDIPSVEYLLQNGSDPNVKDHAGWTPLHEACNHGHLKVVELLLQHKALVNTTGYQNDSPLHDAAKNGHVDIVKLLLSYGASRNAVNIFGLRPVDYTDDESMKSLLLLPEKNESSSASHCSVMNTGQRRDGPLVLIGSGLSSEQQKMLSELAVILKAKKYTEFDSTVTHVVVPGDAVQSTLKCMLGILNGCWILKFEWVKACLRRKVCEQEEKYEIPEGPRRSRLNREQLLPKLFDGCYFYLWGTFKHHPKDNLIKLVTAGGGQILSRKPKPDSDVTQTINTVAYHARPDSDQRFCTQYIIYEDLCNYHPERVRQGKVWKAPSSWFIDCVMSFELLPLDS

B1: mCherry-tagged wild type (WT) full-length human BRCA1 protein (natural protein, UniProt P38398 1-1863, looked up)
chain: MDLSALRVEEVQNVINAMQKILECPICLELIKEPVSTKCDHIFCKFCMLKLLNQKKGPSQCPLCKNDITKRSLQESTRFSQLVEELLKIICAFQLDTGLEYANSYNFAKKENNSPEHLKDEVSIIQSMGYRNRAKRLLQSEPENPSLQETSLSVQLSNLGTVRTLRTKQRIQPQKTSVYIELGSDSSEDTVNKATYCSVGDQELLQITPQGTRDEISLDSAKKAACEFSETDVTNTEHHQPSNNDLNTTEKRAAERHPEKYQGSSVSNLHVEPCGTNTHASSLQHENSSLLLTKDRMNVEKAEFCNKSKQPGLARSQHNRWAGSKETCNDRRTPSTEKKVDLNADPLCERKEWNKQKLPCSENPRDTEDVPWITLNSSIQKVNEWFSRSDELLGSDDSHDGESESNAKVADVLDVLNEVDEYSGSSEKIDLLASDPHEALICKSERVHSKSVESNIEDKIFGKTYRKKASLPNLSHVTENLIIGAFVTEPQIIQERPLTNKLKRKRRPTSGLHPEDFIKKADLAVQKTPEMINQGTNQTEQNGQVMNITNSGHENKTKGDSIQNEKNPNPIESLEKESAFKTKAEPISSSISNMELELNIHNSKAPKKNRLRRKSSTRHIHALELVVSRNLSPPNCTELQIDSCSSSEEIKKKKYNQMPVRHSRNLQLMEGKEPATGAKKSNKPNEQTSKRHDSDTFPELKLTNAPGSFTKCSNTSELKEFVNPSLPREEKEEKLETVKVSNNAEDPKDLMLSGERVLQTERSVESSSISLVPGTDYGTQESISLLEVSTLGKAKTEPNKCVSQCAAFENPKGLIHGCSKDNRNDTEGFKYPLGHEVNHSRETSIEMEESELDAQYLQNTFKVSKRQSFAPFSNPGNAEEECATFSAHSGSLKKQSPKVTFECEQKEENQGKNESNIKPVQTVNITAGFPVVGQKDKPVDNAKCSIKGGSRFCLSSQFRGNETGLITPNKHGLLQNPYRIPPLFPIKSFVKTKCKKNLLEENFEEHSMSPEREMGNENIPSTVSTISRNNIRENVFKEASSSNINEVGSSTNEVGSSINEIGSSDENIQAELGRNRGPKLNAMLRLGVLQPEVYKQSLPGSNCKHPEIKKQEYEEVVQTVNTDFSPYLISDNLEQPMGSSHASQVCSETPDDLLDDGEIKEDTSFAENDIKESSAVFSKSVQKGELSRSPSPFTHTHLAQGYRRGAKKLESSEENLSSEDEELPCFQHLLFGKVNNIPSQSTRHSTVATECLSKNTEENLLSLKNSLNDCSNQVILAKASQEHHLSEETKCSASLFSSQCSELEDLTANTNTQDPFLIGSSKQMRHQSESQGVGLSDKELVSDDEERGTGLEENNQEEQSMDSNLGEAASGCESETSVSEDCSGLSSQSDILTTQQRDTMQHNLIKLQQEMAELEAVLEQHGSQPSNSYPSIISDSSALEDLRNPEQSTSEKAVLTSQKSSEYPISQNPEGLSADKFEVSADSSTSKNKEPGVERSSPSKCPSLDDRWYMHSCSGSLQNRNYPSQEELIKVVDVEEQQLEESGPHDLTETSYLPRQDLEGTPYLESGISLFSDDPESDPSEDRAPESARVGNIPSSTSALKVPQLKVAESAQSPAAAHTTDTAGYNAMEESVSREKPELTASTERVNKRMSMVVSGLTPEEFMLVYKFARKHHITLTNLITEETTHVVMKTDAEFVCERTLKYFLGIAGGKWVVSYFWVTQSIKERKMLNEHDFEVRGDVVNGRNHQGPKRARESQDRKIFRGLEICCYGPFTNMPTDQLEWMVQLCGASVVKELSSFTLGTGVHPIVVVQPDAWTEDNGFHAIGQMCEAPVVTREWVLDSVALYQCQELDTYLIPQIPHSHY
notes: BRCA1, human, full-length, wild type; also called BRCA1 WT; mCherry-BRCA1; source: HEK293FT, transiently co-transfected, in lysate
B2: BRCA1 p.Cys39Tyr (full-length, mCherry-tagged; pathogenic control variant, RING domain) (natural protein, human, UniProt P38398 1-1863, looked up)
chain: MDLSALRVEEVQNVINAMQKILECPICLELIKEPVSTKYDHIFCKFCMLKLLNQKKGPSQCPLCKNDITKRSLQESTRFSQLVEELLKIICAFQLDTGLEYANSYNFAKKENNSPEHLKDEVSIIQSMGYRNRAKRLLQSEPENPSLQETSLSVQLSNLGTVRTLRTKQRIQPQKTSVYIELGSDSSEDTVNKATYCSVGDQELLQITPQGTRDEISLDSAKKAACEFSETDVTNTEHHQPSNNDLNTTEKRAAERHPEKYQGSSVSNLHVEPCGTNTHASSLQHENSSLLLTKDRMNVEKAEFCNKSKQPGLARSQHNRWAGSKETCNDRRTPSTEKKVDLNADPLCERKEWNKQKLPCSENPRDTEDVPWITLNSSIQKVNEWFSRSDELLGSDDSHDGESESNAKVADVLDVLNEVDEYSGSSEKIDLLASDPHEALICKSERVHSKSVESNIEDKIFGKTYRKKASLPNLSHVTENLIIGAFVTEPQIIQERPLTNKLKRKRRPTSGLHPEDFIKKADLAVQKTPEMINQGTNQTEQNGQVMNITNSGHENKTKGDSIQNEKNPNPIESLEKESAFKTKAEPISSSISNMELELNIHNSKAPKKNRLRRKSSTRHIHALELVVSRNLSPPNCTELQIDSCSSSEEIKKKKYNQMPVRHSRNLQLMEGKEPATGAKKSNKPNEQTSKRHDSDTFPELKLTNAPGSFTKCSNTSELKEFVNPSLPREEKEEKLETVKVSNNAEDPKDLMLSGERVLQTERSVESSSISLVPGTDYGTQESISLLEVSTLGKAKTEPNKCVSQCAAFENPKGLIHGCSKDNRNDTEGFKYPLGHEVNHSRETSIEMEESELDAQYLQNTFKVSKRQSFAPFSNPGNAEEECATFSAHSGSLKKQSPKVTFECEQKEENQGKNESNIKPVQTVNITAGFPVVGQKDKPVDNAKCSIKGGSRFCLSSQFRGNETGLITPNKHGLLQNPYRIPPLFPIKSFVKTKCKKNLLEENFEEHSMSPEREMGNENIPSTVSTISRNNIRENVFKEASSSNINEVGSSTNEVGSSINEIGSSDENIQAELGRNRGPKLNAMLRLGVLQPEVYKQSLPGSNCKHPEIKKQEYEEVVQTVNTDFSPYLISDNLEQPMGSSHASQVCSETPDDLLDDGEIKEDTSFAENDIKESSAVFSKSVQKGELSRSPSPFTHTHLAQGYRRGAKKLESSEENLSSEDEELPCFQHLLFGKVNNIPSQSTRHSTVATECLSKNTEENLLSLKNSLNDCSNQVILAKASQEHHLSEETKCSASLFSSQCSELEDLTANTNTQDPFLIGSSKQMRHQSESQGVGLSDKELVSDDEERGTGLEENNQEEQSMDSNLGEAASGCESETSVSEDCSGLSSQSDILTTQQRDTMQHNLIKLQQEMAELEAVLEQHGSQPSNSYPSIISDSSALEDLRNPEQSTSEKAVLTSQKSSEYPISQNPEGLSADKFEVSADSSTSKNKEPGVERSSPSKCPSLDDRWYMHSCSGSLQNRNYPSQEELIKVVDVEEQQLEESGPHDLTETSYLPRQDLEGTPYLESGISLFSDDPESDPSEDRAPESARVGNIPSSTSALKVPQLKVAESAQSPAAAHTTDTAGYNAMEESVSREKPELTASTERVNKRMSMVVSGLTPEEFMLVYKFARKHHITLTNLITEETTHVVMKTDAEFVCERTLKYFLGIAGGKWVVSYFWVTQSIKERKMLNEHDFEVRGDVVNGRNHQGPKRARESQDRKIFRGLEICCYGPFTNMPTDQLEWMVQLCGASVVKELSSFTLGTGVHPIVVVQPDAWTEDNGFHAIGQMCEAPVVTREWVLDSVALYQCQELDTYLIPQIPHSHY
notes: BRCA1, human, full-length, pathogenic control missense variant in the RING domain, introduced in the WT plasmid; Made by site-directed mutagenesis of the plasmid of m1; all other places and c.116G > A say p.Cys39Tyr; also called c.116G > A; source: HEK293FT, transiently co-transfected, in lysate
B3: BRCA1 p.Lys45Gln (full-length, mCherry-tagged; benign control variant, RING domain) (natural protein, human, UniProt P38398 1-1863, looked up)
chain: MDLSALRVEEVQNVINAMQKILECPICLELIKEPVSTKCDHIFCQFCMLKLLNQKKGPSQCPLCKNDITKRSLQESTRFSQLVEELLKIICAFQLDTGLEYANSYNFAKKENNSPEHLKDEVSIIQSMGYRNRAKRLLQSEPENPSLQETSLSVQLSNLGTVRTLRTKQRIQPQKTSVYIELGSDSSEDTVNKATYCSVGDQELLQITPQGTRDEISLDSAKKAACEFSETDVTNTEHHQPSNNDLNTTEKRAAERHPEKYQGSSVSNLHVEPCGTNTHASSLQHENSSLLLTKDRMNVEKAEFCNKSKQPGLARSQHNRWAGSKETCNDRRTPSTEKKVDLNADPLCERKEWNKQKLPCSENPRDTEDVPWITLNSSIQKVNEWFSRSDELLGSDDSHDGESESNAKVADVLDVLNEVDEYSGSSEKIDLLASDPHEALICKSERVHSKSVESNIEDKIFGKTYRKKASLPNLSHVTENLIIGAFVTEPQIIQERPLTNKLKRKRRPTSGLHPEDFIKKADLAVQKTPEMINQGTNQTEQNGQVMNITNSGHENKTKGDSIQNEKNPNPIESLEKESAFKTKAEPISSSISNMELELNIHNSKAPKKNRLRRKSSTRHIHALELVVSRNLSPPNCTELQIDSCSSSEEIKKKKYNQMPVRHSRNLQLMEGKEPATGAKKSNKPNEQTSKRHDSDTFPELKLTNAPGSFTKCSNTSELKEFVNPSLPREEKEEKLETVKVSNNAEDPKDLMLSGERVLQTERSVESSSISLVPGTDYGTQESISLLEVSTLGKAKTEPNKCVSQCAAFENPKGLIHGCSKDNRNDTEGFKYPLGHEVNHSRETSIEMEESELDAQYLQNTFKVSKRQSFAPFSNPGNAEEECATFSAHSGSLKKQSPKVTFECEQKEENQGKNESNIKPVQTVNITAGFPVVGQKDKPVDNAKCSIKGGSRFCLSSQFRGNETGLITPNKHGLLQNPYRIPPLFPIKSFVKTKCKKNLLEENFEEHSMSPEREMGNENIPSTVSTISRNNIRENVFKEASSSNINEVGSSTNEVGSSINEIGSSDENIQAELGRNRGPKLNAMLRLGVLQPEVYKQSLPGSNCKHPEIKKQEYEEVVQTVNTDFSPYLISDNLEQPMGSSHASQVCSETPDDLLDDGEIKEDTSFAENDIKESSAVFSKSVQKGELSRSPSPFTHTHLAQGYRRGAKKLESSEENLSSEDEELPCFQHLLFGKVNNIPSQSTRHSTVATECLSKNTEENLLSLKNSLNDCSNQVILAKASQEHHLSEETKCSASLFSSQCSELEDLTANTNTQDPFLIGSSKQMRHQSESQGVGLSDKELVSDDEERGTGLEENNQEEQSMDSNLGEAASGCESETSVSEDCSGLSSQSDILTTQQRDTMQHNLIKLQQEMAELEAVLEQHGSQPSNSYPSIISDSSALEDLRNPEQSTSEKAVLTSQKSSEYPISQNPEGLSADKFEVSADSSTSKNKEPGVERSSPSKCPSLDDRWYMHSCSGSLQNRNYPSQEELIKVVDVEEQQLEESGPHDLTETSYLPRQDLEGTPYLESGISLFSDDPESDPSEDRAPESARVGNIPSSTSALKVPQLKVAESAQSPAAAHTTDTAGYNAMEESVSREKPELTASTERVNKRMSMVVSGLTPEEFMLVYKFARKHHITLTNLITEETTHVVMKTDAEFVCERTLKYFLGIAGGKWVVSYFWVTQSIKERKMLNEHDFEVRGDVVNGRNHQGPKRARESQDRKIFRGLEICCYGPFTNMPTDQLEWMVQLCGASVVKELSSFTLGTGVHPIVVVQPDAWTEDNGFHAIGQMCEAPVVTREWVLDSVALYQCQELDTYLIPQIPHSHY
notes: BRCA1, human, full-length, benign control missense variant in the RING domain, introduced in the WT plasmid; Made by site-directed mutagenesis of the plasmid of m1; also called c.133A > C; source: HEK293FT, transiently co-transfected, in lysate

What follows are binders tested against T1, BARD1-V5 WT (BRCA1-Associated RING …) (assay: co-IP; HEK293FT co-transfected with BRCA1 WT or variant and BARD1-V5; 2 mg lysate protein incubated 90 min at 4 °C with V5 antibody coupled to Dynabeads Protein G; non-denaturing elution; BRCA1 in the IP detected by anti-BRCA1 blot, normalised to the anti-V5 signal, % of WT). Conditions: partners not purified.
B1 was tested, and the “Co-IP BARD1 (% of WT)” value was 100 % of WT. For B2, the “Co-IP BARD1 (% of WT)” value was 8 % of WT. For B3, the “Co-IP BARD1 (% of WT)” value was 76 % of WT.
